Assay results from US20200131277A1.

Target: pY peptide GGGpYGGG
Assay: BLI (Octet RED384), biotinylated peptide on streptavidin sensor, Fab in solution, 1:1 fit

| Kd | Substance |
| --- | --- |
| 1830 nM | PY20^4D5 (Fab) |
| 277 nM | 4G10^4D5 (Fab) |
